Experimental data taken from the domain aggregation screens of Martell et al. (2025).

Assay: soluble fraction after stress (log2 fold change); higher = more stays soluble; pooled small domains, quantitative proteomics
Details: stress: pH 4
Outline: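 Aggregation propensity is estimated from the fold change in each domain's soluble amount after acid stress. Pooled small-domain libraries were stressed at pH 4, and higher log2 values mean more stayed soluble.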

Row | Sequence | soluble fraction (log2)
1 | HMAAQDLIVKTDASQVEARVLEISPDAVRYKRFSNPDGPTYVLPVAEIRYIRYANGEVEYYA | -0.207
2 | HMELVIGESLAVELLRPGKEDGQALGYLPDGSMVVVNNGRAFVGKRVTAEIIGVIRSAGGKMVFSNLLGE | -2
3 | HMRVELVVVPELRQQLLPEARELANSAGLQLRVRGQSPADETRTIVVTQSPAAGTRVAARSIVLVE | 0.338
4 | HMKTDLQIQQDVMAELKWEPKVNAAHIGVEVKHGVVTLSGHVDSFAEKWNAEQAAKRVAGVKFIAIELDV | -0.0349
5 | HMLPGVPVVAGKTQSAATRILKAAGYAVSVVREEAFDGVTGTVLRTSPEAGSPLAPGSRVTLVVLQVV | -0.114
6 | HMSIQELMNSKDLSSFKVEMLSDEDIAKYKGLLQNSGLTEAQAEQMALQRGLPSSELLKLKARLSGI | 0.0846
7 | HMQRNLILKLDTDQPEIYKKLESIFVEINGLLVPFFIEKIIWSKQDSLNILFKNSSEALVEQLIGKNVFLP | 0.0162
8 | HMDPFAYEVKVTDLAAGSSEIRTVYTEQGSFNIPSGMSGNLKIQVRSASMYDEVEPSDWYTIGEEDIN | -0.461
9 | HMSFPFLMPNLEGLQLDQVRVILEENGLEIGQENYQPDSKFGPGTIINHQPSVDTVVQTGQKVNLQISGTD | -1.14
10 | HMDQAEDVLSIPVDALMRGNQVYIKDDTVTEQQGPIPAGFKAVEVETGLISDSYVEIKSGLSEGDTVYVAE | -0.661
11 | HMKAFTKKELQDLVLNIFRASPTTNYNYKQLYKLIRGKDPEIKTLIIAVLLGLEKNGSILQMRPGKYKFS | -0.268
12 | HMENSYSVEDLALKAAISVDTIRYYQGLGLISPPQKNGRRAIYGNDHISRLEEIKKLAFEGFSLRQISLL | 0.22
13 | HMSTTDGIERFLASGAVKGIGRTMAARIVEHFGSRTLTVMESEPERLTEVAGIGRKKAESIAASYAELS | -0.137
14 | HMNVEKLREMYPEGTKIILQEMQGESRMAKGLKGTVTHVDDAGQIHMKWENGSSLVLNVEVDTFKKIE | -0.562
15 | HMNNPISMQKLRQVIRLYGQGKGTKSINSMLGVSRNTIKKYLQVYHSSGINYESFLAMSDKELSAVFLV | 0.226
16 | HMTASKSTVSTPEKVVYHIVFPKETKYSIAKKYGITIEELEKRNPEIIPSLSVGQKLVIKGTAPK | 0.173
17 | HMLLSTHVVVAKEDVQIGTRLQPAMLQVVDWPSASPLKNPLTSIEQATDRVVNMPLVKGEPISMSKLAAKG | 0.0815
18 | HMLARPTANELVKEMQRRAKEQRTELPPDAARDLLERSGQDQFLLGNEVDKLAALSGYTTITREMVAQAGT | 0.0328
19 | HMTAPELGIRQDGNTLVIFWPSSVTGYVLKSADAVDTPPASWTSVTHTTVGDEHRAEITPTGNSRFFRLV | -0.492
20 | HMLTEERLQIITDTVNSRSSVTIAELSRILDVSPSTVKRDLNILAEAGKITKVRGGAIALGE | 0.164
21 | HMEMLQRFIFLENVSSTQVESAIKELHPNLNLKRVKLSFPGADTVLLKGPKQDLELAEELIRHLDRSE | -0.609
22 | HMKHFNDEELDGFAGLKSDDYNEEQVELFRNIFEELHPDEIIEWTESLRRRGIEIPSSLKDEVVMMIN | -1.69
23 | HMATPEINNLGRLRNAINQSNVNWHQIIKRLQNEYPNNWRQILIAIDRHDLLFRYDVENYIKYG | -0.855
24 | HMVSLPSPLAGKVVSLTVQAGQEVKEGDEIMVLEAMKMNTQVHAPSSGRILALRVQPGDQVEEGQTLVTMG | 0.0584
25 | HMNPETLTNGSVVKMSKANLSDELIIDMINNSPARFDLSSGALRSLEGEGVSKAVIESMKRATSG | 0.0233
26 | HMKPSNRSYPTALRMEVIGIIRERYADFGPTLAGEKLAELHGIHLGRETIRQWMMAAGLWKDRR | -0.759
27 | HMGGNKILTWKTDAATTRNQVPINERKEGLEISYKNEERNWVAEKYVGTSFSDDKWGVDYNWNQD | -0.559
28 | HMTAPQAQDYARVPDVLGLDMRESAQALRLDGFEMNAQGDGLAARQSPIGGSYAPEGTQVLVTFEM | -0.0592

Row | Sequence | soluble fraction (log2)
29 | HMEGGLIMDRIEKGLQSGVMPDLRGLNLKDALYLLESYVQVQVIGSGGVIKQSIKTGDKFIMGSVIKLEL | 0.041
30 | HMDRDQNVEEGQRSLKSEMGRFGLLIANMDDLAERVNYGNAEDMYAAIGAGDLRLMQVVHAAEEMLG | -0.61
31 | HMQLTVAVLIKNISKGQVISQGFLGFEARPERQIRGAYTNISEVLGRKAKSNIAVGTILKARHLDT | -0.49
32 | HMLAQDVIVKQDGGTILSKVLEIGTQEIAYKKWNSQDGPVYKIAKDQVLSVNYQNGEVDRFA | -0.233
33 | HMDTERLYAYAWQTHLKQFGLNISEEEIRQFVGVDDRIVHSFYAKTVPLDDFENTMFSLGEIIQQSL | -2.08
34 | HMIFSIIPGQIRLTKMEIADGYLVLYGFTPSKEIYNLHLNPALKSIFTSSETSFIPVSGGLKFMSTNKL | -0.442
35 | HMKEPIYQTILSALILELNTNHFRKNDPFYSESELRKKYQVSSTTVVRVLNMLADQGYIYRIQGKGSFVSK | -0.5
36 | HMARRLELEDIPVDEVLFTASRNLVDAIEVMDPSRQAPMIQPWLKQALEWAVGALGFSKEDAVATLTSD | -0.264
37 | HMNKSEFLNELEKRIRVLEKNEIKDILAEYSQHIDMRMGSGLSEAEAIKDFGDMDDLAAEILEAY | -0.436
38 | HMEKPAQDVLASHREWMGEMIKAEHMTAKQVWRLLRERADIGVSYPTVKRYLRAHFQFGGPS | 0.00611
39 | HMPVFYVTGNRVNFRAGPSTGDRVIGSLSQGAAVEVLGPTDDAWINIRDSDGRVGYMSAQFLSQ | -0.213
40 | HMYLLPVTSTELKGNYPNPFNPETTISFDLKDAERVNLSIYNLKGQLVRTLVNSDLPIGRHRLIWDGNDS | -0.609
41 | HMKTFQSYQTTSMSNVNLRKRANGTSTILKRIKVGDTVTVVGKSGNYYQIQFDGKEGYALIKYIDGTDSGA | -0.107
42 | HMGASGVEVPDVAGMSTAQAVSSLEQKGFVVNRTESYDAGVEKGNVISQSPEGGTKAPNGSAVTIRISQGA | 0.081
43 | HMDHWQSVNSALELLEVSRRTLYDYISRKKLQTKKEGKYRYVWIDDDVIEEIKTSKSAYIEINN | -1.08
44 | HMRYVVQVATFSSKNNAIRAADDLAGFVVVSNGYYRVRTGPYADRGEANAALAKARKAGYTDAFVDTS | 0.0704
45 | HMLDYITLSPQELGKLLSAGNGDAAMVYLYMKATGDVTLKQAETQLGMTNQNLAWAESLLKRLGLMD | -0.501
46 | HMASKTGTITATSLNVRSGAATTYSILGTLSNGKTVTIYEESNGWYKINYNGGYGWVSKTYVSTG | -0.105
47 | HMYFNTADLKADSIHYGSTEQSVIKILGEPEYRETFVDNNVSYELFSYKGNLLLSFVENSLVSL | -0.0269
48 | HMEDNKLKNEIKNELVSHLEKPYSVEDLADALKYHGSAAFKLIVQELAILERERAVVVTHDGNFKINSS | -0.0181
49 | HMENITTILRSIKNEIKKNSTFVGDDFVNQARSMNQGQIKEKSIYGHGTKKEIEELRDEGVDVLNIPWIT | 0.0184
50 | HMVSKTEAMAVFIADKLQEGMVPANEILELYKGMQLSDRTIRNAKKQLGIVSIRKDGQWYWSL | -0.997
51 | HMSIYDAPIEDLKFSTRIFNSLKRADIHTVADLIAHSRDDLMKVRNLGATSLDELIEKLGTHGLQLADP | -0.356
52 | HMNVPFGFDEVNGKLVKNEEEQAIISEIKSLKNKGLSLRKIAEALNGRGIATKNGKAWTAVQIQRIA | 0.22
53 | HMWNPVLVVRGDFPKDLATTLLKMIFAQKEALNPHILFQNLLRTDNITFRESYPYHSASKTMFRF | -0.421
54 | HMYSFPHQLLKLRTEKQLSQAELATRLFVSRQAVSKWENGDAEPSIDKLILLAKVFNVSLDRLILGT | 0.18
55 | HMEKLSMLKIKELFRLAIEMNLSHRQIAQSLNVSHTVVNRYLKRFKKSNLSYETLLKLGDKEIISALYEH | -0.0551
